Consider four molecules from article PMC4948871, “The Molecular Mechanism of Ethylene-Mediated Root Hair Development Induced by Phosphate Starvation”.

The chains are these.
T1: GST-EIN3(141-352) (Arabidopsis thaliana, UniProt O24606 141-352)
T1 sequence: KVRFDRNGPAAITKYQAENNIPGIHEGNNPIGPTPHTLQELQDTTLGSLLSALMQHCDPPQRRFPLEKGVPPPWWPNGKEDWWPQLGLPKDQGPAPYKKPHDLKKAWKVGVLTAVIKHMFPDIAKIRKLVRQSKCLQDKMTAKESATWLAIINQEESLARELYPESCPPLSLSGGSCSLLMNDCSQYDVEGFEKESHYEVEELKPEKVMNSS

B1: EXT14-P2 (dsDNA)
DNA 1: TGCATATGAATTAACATGCATATGAATTAACATGCATATGAATTAACATGCATATGAATTAACA
DNA 2: TGTTAATTCATATGCATGTTAATTCATATGCATGTTAATTCATATGCATGTTAATTCATATGCA
B2: RHS15-P2 (dsDNA)
DNA 1: GACAAATGAATTCGGAGACAAATGAATTCGGAGACAAATGAATTCGGAGACAAATGAATTCGGA
DNA 2: TCCGAATTCATTTGTCTCCGAATTCATTTGTCTCCGAATTCATTTGTCTCCGAATTCATTTGTC
B3: RHS19-P1 (dsDNA)
DNA 1: TCTGCACGAATGTCACTCTGCACGAATGTCACTCTGCACGAATGTCACTCTGCACGAATGTCAC
DNA 2: GTGACATTCGTGCAGAGTGACATTCGTGCAGAGTGACATTCGTGCAGAGTGACATTCGTGCAGA
B4: PRP1-P4 (dsDNA)
DNA 1: AACAGATGAACGACATAACAGATGAACGACATAACAGATGAACGACATAACAGATGAACGACAT
DNA 2: ATGTCGTTCATCTGTTATGTCGTTCATCTGTTATGTCGTTCATCTGTTATGTCGTTCATCTGTT

This series deals with T1, GST-EIN3(141-352). The experiment in a line: EMSA; competed by 500x unlabelled probe; 25 mM HEPES-KOH pH 7.5, 100 mM KCl, 0.1 mM EDTA, 10% glycerol, 1 mM DTT, 1 ug poly(dI-dC), 0.1 ug protein in 20 uL, room temperature 30 min; 5.5% PAGE in 0.5x TBE. The following applies: protein: recombinant; tags: GST (pGEX-6p-1); chain copies: 2; label: biotin; blunt. (A gel shift assay detects complexes by their altered migration in electrophoresis.)
Regarding B1, the binding result is “binds”.
Next, B2: “binds”; B3: “binds”; B4: “binds”.
